In the assay the target is M. tuberculosis PpiB overexpressed in M. smegmatis (Ms_PpiB Tet+) (Mycobacterium tuberculosis) (UniProt P9WHW1). The assay can be described thus: cell-based or functional assay.
Sequence of UniProt P9WHW1 (P9WHW1 whole entry): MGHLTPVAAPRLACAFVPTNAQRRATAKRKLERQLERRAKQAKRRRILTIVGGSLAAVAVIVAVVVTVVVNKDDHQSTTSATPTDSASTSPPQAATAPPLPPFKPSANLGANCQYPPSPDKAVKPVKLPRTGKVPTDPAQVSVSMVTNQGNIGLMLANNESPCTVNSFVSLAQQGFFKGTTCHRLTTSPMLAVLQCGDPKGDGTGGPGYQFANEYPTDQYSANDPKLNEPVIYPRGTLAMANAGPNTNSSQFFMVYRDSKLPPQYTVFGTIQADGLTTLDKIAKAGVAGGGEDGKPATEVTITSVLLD

cyclosporine A (peptide) showed a biofilm formation (crystal violet assay, absorbance at 550 nm) above 100 µg/mL.
